Target: the molecule itself
Assay: cross-linking; BS3 0.25 mM, 15 min at RT in PBS with 1 mM DTT, proteins mixed about 1:1; SDS-PAGE, anti-His and anti-GST Western blots

B1: ZFP106-f (residues 1265-1521 of ZFP106), His-tagged (domain or fragment, human, UniProt Q9H2Y7 1265-1521, looked up)
chain: KFSVEQRNTRNRENSPSSQSAGLSSINKEGEEPTKGNSGSEACTSSFLRLSFASETPLEKEPHSPADQPEQQAESTLTSAETRGSKKKKKLRKKKSLRAAHVPENSDTEQDVLTVKPVRKVKAGKLIKGGKVTTSTWEDSRTGREQESVRDEPDSDSSLEVLEIPNPQLEVVAIDSSESGEEKPDSPSKKDIWNSTEQNPLETSRSGCDEVSSTSEIGTRYKDGIPVSVAETQTVISSIKGSKNSSEISSEPGDDDE
notes: The His tag is named for the cross-linking and detected by anti-His blot there and in the acetylation assays; also called wt ZFP106-f; His-tagged ZFP106-f
stoichiometry N: 2

— article PMC5498717, “Linking functions: an additional role for an intrinsically disordered linker domain in the transcriptional coactivator CBP” (Scientific Reports, 2017)
